Among the data in PMC5297857 are stoichiometry N values, retold here.

The experiment concerns the target soluble form of human TNFα (aa 77–233), wild-type (human). Put plainly: crystal structure; purified TNFα and certolizumab Fab mixed in a 1:1 molar ratio, complex isolated by size exclusion chromatography (20 mM Tris pH 8.0, 300 mM NaCl); hanging-drop crystals at 20 °C; 2.89 Å, three copies in the asymmetric unit.

Turning to “soluble form of human TNFα (aa 77–233), wild-type (ligand)”, the stoichiometry N was determined as 3.
